Experimental findings from patent US20250019465A1, “COMPOSITIONS AND METHODS FOR RARE HEPARAN SULFATE GLYCAN-TARGETED CANCER TREATMENT” (THE BOARD OF REGENTS OF THE UNIVERSITY OF TEXAS SYSTEM, priority 2021, published 2025) are described below.

One assay has as its system RenCa kidney cancer. The experiment in a line: RenCa kidney cancer tumor, intra-tumoral glycan injection. The format is in vivo, BALB/c mice. As for the experimental part:
(§1) B16 melanoma cells (5×10^5 cells/mouse) were implanted s.c. into B6 mice (n=4); on day 6, 1 mg of Glycan #3 (G3) or Glycan #12 (G12, see FIG. 1A) was injected intra-tumorally 5 times every 2 days. Tumor volume was measured (FIG. 10A). On day 17, tumors (photos of 2 representatives) were excised. […] Similar experiments were performed with RenCa kidney cancer in BALB/c mice and data are shown in FIG. 10C (tumor volume) and 10D (expression of angiogenic factors). Data shown is representative of 2 experiments. *p<0.0001.

For assay [1], the system named is DC-HIL-induced angiogenesis. Kind of assay: Matrigel plug assay of DC-HIL-induced angiogenesis. The format is in vivo, mice. Particulars: DC-HIL-Fc 200 nM with 10× molecular excess of glycan in matrigel, s.c., 2 weeks. The protocol: In order to test the role rHS (Glycan #12) plays in controlling angiogenesis, DC-HIL-Fc (DCH) or Fc (200 nM) was mixed with 10× molecular excess of Glycan #3 or Glycan #12 (See FIG. 1A) and added to matrigel, and implanted s.c. into mice; 2 weeks later, plugs were excised and observed for blood vessels under microscope. Representative photos are shown (FIG. 9A). Plugs were quantified for Hb content (FIG. 9B). Red-dashed line indicates Hb level in Fc-control plug. Data are shown average±SD, n=4.

Another assay deals with DC-HIL-Fc. The experiment in a line: DC-HIL-Fc binding to HS oligosaccharide microarray. The conditions noted are these: DC-HIL-Fc 10 mg/ml, visualized by Cy-3, FIG. 1B. As for the experimental part:
Various HS oligosaccharides (4-8-mers of HS disaccharide) were imprinted on microarray (Gycan Therapeutics Inc). These glycans were chosen based on sulfation patterns in mammalian cells (FIG. 1A). DC-HIL-Fc (10 mg/ml) was applied and then hybridized to the microaway and visualized by Cy-3 (mean±SD, n=6). […] SVEC mouse endothelial cells or activated T-cells were then incubated with DC-HIL-Fc (10 mg/ml) plus indicated oligoglycans, and DC-HIL binding was fluorescently stained with anti-Fc Ab and FACS analysis. FIG. 1C provides histograms showing binding of Fc control (blue) or DC-HIL-Fc (red), respectively.

Assay [2] deals with B16 melanoma cells. Kind of assay: B16 melanoma s.c. tumor, intra-tumoral glycan injection. The format is in vivo, B6 mice. As for the experimental part: as §1
Assay [3] is described as follows: HS glycan microarray analysis of 1A7 SdAb (53 glycan compounds). The assay is classed as binding. Particulars: 1A7 SdAb 10 μg, anti-c-myc label, FIG. 4. The protocol: 1A7 SdAb (10 μg) was hybridized with HS glycan microarray consisting of 53 glycan compounds (Glycan Therapeutics Inc) and fluorescently labeled with anti-c-myc. Hybridized arrays were analyzed for fluorescence intensity (U); average±sd, n=100). SdAb has the C-terminal c-myc tag.

A further assay has as its system LL2 cells. The experiment in a line: Experimental lung metastasis after i.v. injection of LL2 cells. The assay is classed as in vivo, mice. The conditions noted are these: day 18, vs KLH. The protocol:
(§2) On day 6 after implantation s.c. of B16 melanoma cells (2×10^5 cells/mouse), mice were treated i.p. with 1A7 or KLH Ab (10 mg/mouse, every 2 days, 5×, shown by reverse arrows). In separate experiments, tumor free mice were injected intravenously (i.v) with 1A7 or KLH (10 mg/mouse) either one day before (d-1) or one day after (d1) intravenous (i.v) injection with B16 or LL2 cells (2×10^5 cells/mouse, n=5). On day 12 (for mice injected with B16 cells) or day 18 (for mice injected with LL2 cells), the number of GFP+ cells in 5×10^5 lung cells was determined via FACS. FIG. 11C-11E summarize numbers of positive cells in each condition.

The next assay relates to LacZ-LL2 cells. Kind of assay: Spontaneous lung metastasis from resected s.c. LacZ-LL2 primary tumor. The format is in vivo, mice. Particulars: Ab injection every 3 days after tumor resection, lungs 2 weeks later. The protocol:
Briefly, mice were implanted s.c. with LacZ-LL2 cells, 2 weeks later, tumor was resected surgically. Mice were then treated with Ab injection every 3 days. 2 weeks later, lungs were excised and stained with X-gal (labeled LacZ-LL2 cells in blue) and blue stains were counted. FIG. 17B provides representative images of lung sections stained with X-gal, showing by green or red arrows. The number of tumor cells per field of view (FOV) were counted and plotted in FIG. 17C alongside and average of 5 FOVs. Each dot represents an individual mouse.

Assay [4] is described as follows: ELISA: DC-HIL-Fc binding to Glycan #12-coated wells with increasing dose of 1A7 SdAb. Particulars: DC-HIL-Fc 1 mg/ml, increasing dose of 1A7 SdAb, FIG. 3D. The protocol: SdAbs were obtained as described in Example 2. All SdAb clones were purified from DNA-transfected CHO cells. […] Biotinylated Glycan #12 (0.5 mg/ml) was immobilized to ELISA wells precoated with streptavidin (1 mg/ml) and incubated with increasing doses of 1A7 SdAb (FIG. 3A), FGF2 (negative control, FIG. 3B) and VEGF (positive control, FIG. 3C). After incubating for 1 h, wells were washed and binding measured by anti-c-myc Ab (OD450); SdAb has the C-terminal c-myc tag. In FIG. 3D, DC-HIL-Fc (1 mg/ml) was incubated with Glycan #12-coated wells, with increasing dose of 1A7 SdAb. % inhibition is shown. […] In FIG. 3E: FGF2 or VEGF (0.25 or 0.5 mg/ml) was added to Glycan #12-wells with 0.5 mg/ml of 1A7 or control SdAb (Ctrl), which is specific for KLH. % inhibition is shown. To examine the expression of the 1A7 epitope, immortalized murine […] cells (SVEC) were treated with 50 mM Sodium Cholate (red histogram) or untreated (Blue). Next day, cells were analyzed by FACS for expression of 1A7 epitope (FIG. 3F). […] FIG. 3H summarizes all data from experiments of binding/inhibition and expression analysis on different tumor lines. “Block DC-HIL (or VEGF or FGF2)” means blocking of binding to Glycan #12.
A general note: An ELISA detects its analyte on a solid surface through an enzyme-linked reagent.

In a further assay the test system is Pan-T cells. The experiment in a line: Anti-CD3-induced Pan-T cell proliferation (3H-thymidine) on wells coated with 1A7. Particulars: wells pre-coated with 4 mg/well Ab plus increasing doses of anti-CD3 Ab, 2 days, vs KLH control Ab. The format is cell-based, human. As for the experimental part:
The ability of 1A7 to affect induction of T-cell activation using anti-CD3 antibodies was tested. Pan-T cells isolated from blood sample of a healthy donor were incubated with wells (2×10^5 cells/well) pre-coated with 1A7 or KLH control Ab (4 mg/well) plus increasing doses of anti-CD3 Ab. After incubation for 2 days, ^3H-thymidine was pulsed for 16 h, harvested, and counted for cpm in cells. […] Data are shown average±SD, n=3

A further assay relates to B16F10 melanoma cells. Kind of assay: B16F10 melanoma s.c. tumor growth and tumor IHC, rHS Ab vs PD1 Ab. The format is in vivo, B57BL/6 mice. The protocol:
Antitumor activity of rHS Ab to B16 melanoma was examined. Briefly, B16F10 melanoma cells (5×10^5 cells/mouse) were implanted s.c. into B57BL/6 mice (n=5). Six days later, mice were treated with i.p. injection of Ab every 2 days; 1A7 rHS Ab (20 mg/mouse), PD1 ([…]), rHS/PD1 (20 mg and 200 mg, respectively) or control (Ctrl) Ab ([…]). Tumor volume was measured every 2 days (FIG. 20A). On day 15, all mice were euthanized, tumors were excised and IHC-stained with marker Ab (CD4, CD8, CD11b, and CD31) (FIG. 20B). Positive staining is assayed by % positively stained areas in 4.5 mm2 view (mean±sd, n=5). […] Thus, rHS Ab inhibited melanoma growth, reversing immune suppression and tumor angiogenesis.

Assay [5] has as its system B16 melanoma cells. Kind of assay: B16 melanoma s.c. tumor growth, i.p. 1A7 or KLH Ab. The assay is classed as in vivo, mice. Particulars: 10 mg/mouse i.p. every 2 days 5× from day 6, vs KLH Ab. As for the experimental part:
as §2

The test system of assay [6] is human SK-MEL-28 melanoma cell line. The experiment in a line: Lung metastasis of human SK-MEL-28 melanoma cells in xenograft NSG mice. Particulars: single i.v. injection 10 mg/mouse one day before SK-MEL-28 i.v., Day 14, vs KLH. The format is in vivo. The protocol: A final experiment was performed to determine the effect of an anti-rHS antibody on human lung metastasis in a xenograft mouse model. Immuno-deficient NSG mice (n=5) were injected i.v. with KLH or 1A7 SdAb (10 mg/mouse). Next day, mice were given i.v. injection of 2×10^5 human SK-MEL-28 melanoma cell line. Note: Ab injection is just one time. On Day 14, lung was enumerated by FACS for GFP^+ cells (FIG. 16A) and the number in 5×10^5 lung cells (average±sd, n=5) are summarized (FIG. 16B). *p<0.0001. Data are representative of 2 separate experiments. 1A7 single injection decreased human melanoma in lung by 84% (FIGS. 16A and 16B).

The test system of the next assay is B16 cells. The experiment in a line: Experimental lung metastasis after i.v. injection of B16 cells. The format is in vivo, mice. As for the experimental part:
as §2
1A7 SdAb was compared to other standard treatments (e.g., anti-PDL1 antibody, anti-VEGFR2 antibodies) for its ability to inhibit metastasis using the B16 cell model. Mice (n=5) were injected i.v. with KLH, 1A7 SdAb (10 mg/mouse), anti-DC-HIL (DCH), anti-PDL1 (PL1), anti-VEGFR2 (VER) or combined PL1/VER (PL/VE) mAb ([…]). Next day, mice were given i.v. injection of 2×10^5 B16 cells/mouse. Note: Ab injection was a one-time treatment. On Day 14, lung was enumerated by FACS for GFP^+ cells (FIG. 12A) and the number in 5×10^5 lung cells (average±sd, n=5) are summarized (FIG. 12B). *p<0.0001; **p=0.007. Data are representative of 2 separate experiments. […]

With “GlcNS6S-GlcA-GlcNS6S-IdoA2S-GlcNS6S-IdoA2S-GlcNS6S-GlcA [Glycan #12]”, in the assay with RenCa kidney cancer (RenCa in BALB/c mice, intra-tumoral glycan), the “Tumor volume (growth of kidney cancer)” value is given as “markedly attenuated growth”. Moreover, the “tumor expression of angiogenic factors (qRT-PCR relative to GAPDH)” value in the assay with RenCa kidney cancer (RenCa tumors) and in the assay with B16 melanoma cells [2] (B16 tumors excised on day 17) was “inhibited tumor expression of angiogenic factors” in each case. Moreover, the “DC-HIL-induced angiogenesis (blood vessels, Hb content of plugs)” value in [1] was “completely abrogated”. In addition, in the assay with DC-HIL-Fc, the “binding of DC-HIL-Fc to each glycan as average RFU” value is “strongest binding”. Further, the “Tumor volume (growth of melanoma)” value in the assay with B16 melanoma cells [2] (B16 s.c. in B6 mice, 1 mg glycan intra-tumorally 5 times every 2 days from day 6) was “markedly attenuated growth”.

B1: 1A7: single domain antibody clone, single variable heavy chain (VH), SEQ ID NO: 18, specific for rare heparan sulfate glycan (Glycan #12) (protein)
VHH: QVQLLESGGGLVQPGGSLRLSCAASGVKVSTKSMGWVRQAPGKGLEWVSTIARNDGSTYYADSVKGRFTISRDNSKNTLYLQMNSLRAEDTAVYYCARMKKNGGSKRQPHIRSWGQGTLVTVSS
modifications: Synthetic construct - Clone 1A7
As for B1, in assay [3], the “affinity for Glycan #12 (fluorescence intensity on HS glycan microarray)” value is “robust affinity”. In addition, in the assay on LL2 cells (single 10 mg/mouse i.v. one day after (d1)), the “lung metastasis: number of GFP+ cells in 5×10^5 lung cells” value (“lung metastasis: number of GFP+ cells” below) was “significantly reduced”. In the assay with LL2 cells (single 10 mg/mouse i.v. one day before (d-1)), the “lung metastasis: number of GFP+ cells” value is “significantly reduced”. Moreover, the “spontaneous lung metastasis (tumor cells per field of view, X-gal)” value in the assay on LacZ-LL2 cells is “significantly reduced”. Besides, the “competition with DC-HIL-Fc for binding to Glycan #12 (% inhibition)” value in [4] is reported as “compete for a similar binding site”. The “T cell replication (activation), 3H-thymidine cpm” value in the assay with Pan-T cells is recorded as “significantly less replication”. The “Tumor volume (melanoma growth) compared with PD1 Ab” value in the assay on B16F10 melanoma cells (20 mg/mouse i.p. every 2 days from day 6, PD1 200 mg/mouse) is “better outcomes than PD1 Ab”. In addition, in the assay with B16F10 melanoma cells (tumors excised day 15), the “tumor density of CD4 T cells (% positively stained areas, IHC)” value is given as “increased tumor densities”; the “tumor density of CD8 T cells (% positively stained areas, IHC)” value is given as “increased tumor densities”; the “tumor density of CD11b (% positively stained areas, IHC)” value is “decreased densities”; the “tumor density of microvacuoles (CD31, % positively stained areas, IHC)” value is recorded as “decreased densities”. For the same molecule, in the assay with B16 melanoma cells [5], the “Tumor volume (tumor growth)” value is listed as “significantly reduced”. Also, in assay [6], the “decrease of human melanoma in lung (GFP+ cells in 5×10^5 lung cells)” value turned out to be 84%. Further, in the assay with B16 cells (B16 i.v., single 10 mg/mouse i.v. one day before (d-1), day 12, vs KLH), the “lung metastasis: number of GFP+ cells” value is reported as “significantly reduced”. The “growth of B16 metastasis (GFP+ cells in 5×10^5 lung cells) compared to other treatments” value with B16 cells (single i.v. 10 mg/mouse one day before B16 i.v., Day 14, comparators anti-PDL1, anti-VEGFR2 200 mg/mouse) is “inhibited growth of B16 metastasis, more than currently FDA-approved drugs”.
